Assay results taken from patent publication US10788489.

Experiments:
[1] = target: anti-histidine-tag polyclonal antibody (Bethyl Laboratories, Inc., USA); experiment: competitive immunochromatography, 10 µg/mL FBA added; concentration read from the ATG-8 standard curve
[2] = target: anti-histidine-tag polyclonal antibody (Bethyl Laboratories, Inc., USA); experiment: competitive immunochromatography, 30 µg/mL FBA added; concentration read from the ATG-8 standard curve
[3] = target: anti-histidine-tag polyclonal antibody (Bethyl Laboratories, Inc., USA); experiment: competitive immunochromatography, 1.1 µg/mL FBA added; concentration read from the ATG-8 standard curve
[4] = target: anti-histidine-tag polyclonal antibody (Bethyl Laboratories, Inc., USA); experiment: competitive immunochromatography, 3.3 µg/mL FBA added; concentration read from the ATG-8 standard curve
[5] = target: anti-histidine-tag polyclonal antibody (Bethyl Laboratories, Inc., USA); experiment: competitive immunochromatography, 0.37 µg/mL FBA added; concentration read from the ATG-8 standard curve
[6] = target: anti-histidine-tag polyclonal antibody (Bethyl Laboratories, Inc., USA); experiment: competitive immunochromatography, 10 µg/mL FBA added; calculated against added concentration, ATG-8 standard curve as reference
[7] = target: anti-histidine-tag polyclonal antibody (Bethyl Laboratories, Inc., USA); experiment: competitive immunochromatography, 30 µg/mL FBA added; calculated against added concentration, ATG-8 standard curve as reference
[8] = target: anti-histidine-tag polyclonal antibody (Bethyl Laboratories, Inc., USA); experiment: competitive immunochromatography, 1.1 µg/mL FBA added; calculated against added concentration, ATG-8 standard curve as reference
[9] = target: anti-histidine-tag polyclonal antibody (Bethyl Laboratories, Inc., USA); experiment: competitive immunochromatography, 3.3 µg/mL FBA added; calculated against added concentration, ATG-8 standard curve as reference
[10] = target: anti-histidine-tag polyclonal antibody (Bethyl Laboratories, Inc., USA); experiment: competitive immunochromatography, 0.37 µg/mL FBA added; calculated against added concentration, ATG-8 standard curve as reference

B1: fructose bisphosphate aldolase comprising histidine-tag (Cusabio, USA) (enzyme, UniProt P04075 2-364, looked up, species assumed)
Fructose-bisphosphate aldolase A: PYQYPALTPEQKKELSDIAHRIVAPGKGILAADESTGSIAKRLQSIGTENTEENRRFYRQLLLTADDRVNPCIGGVILFHETLYQKADDGRPFPQVIKSKGGVVGIKVDKGVVPLAGTNGETTTQGLDGLSERCAQYKKDGADFAKWRCVLKIGEHTPSALAIMENANVLARYASICQQNGIVPIVEPEILPDGDHDLKRCQYVTEKVLAAVYKALSDHHIYLEGTLLKPNMVTPGHACTQKFSHEEIAMATVTALRRTVPPAVTGITFLSGGQSEEEASINLNAINKCPLLKPWALTFSYGRALQASALKAWGGKKENLKAAQEEYVKRALANSLACQGKYTPSGQAGAAASESLFVSNHAY
modifications: His-tag
Calculated concentration [1]: 1.81 µg/mL
Calculated concentration [2]: 11.7 µg/mL
Calculated concentration [3]: 0.14 µg/mL
Calculated concentration [4]: 0.51 µg/mL
Calculated concentration [5]: 0.056 µg/mL
Recovery [6]: 0.18
Recovery [7]: 0.39
Recovery [8]: 0.13
Recovery [9]: 0.15
Recovery [10]: 0.15
